Experimental data reported in patent US20200270325A1 (Merck Sharp & Dohme, published 2020).
Numbered stars: 1 amine (or outer) side, 2 acyl side, 3 side chain; on linkers, the order of the positions; unused ones are H or OH. Square brackets hold non-standard residues; d marks the D form. Side chains are listed from the residue outwards. Ends that are not written are not given here. * marks the point of attachment. C18 diacid = O=C(O)CCCCCCCCCCCCCCCCC(=O)*; C16 diacid = O=C(O)CCCCCCCCCCCCCCC(=O)*; γGlu = O=C(O)[C@H](CCC(=O)[*:2])N[*:1]; Met(O2) = CS(=O)(=O)CC[C@H](N)C(=O)O; αMeD = C[C@](N)(CC(=O)O)C(=O)O; AEEA = NCCOCCOCC(=O)O; Aib = CC(C)(N)C(=O)O

Legend:
[1] = biological target: human Glucagon receptor (GCGR) (human, UniProt P47871 26-477); experiment: cell-based or functional assay
[2] = biological target: human GLP-1 receptor (GLP1R) (human, UniProt P43220 24-463); experiment: cell-based or functional assay

Chain of human Glucagon receptor (GCGR) (P47871 26-477): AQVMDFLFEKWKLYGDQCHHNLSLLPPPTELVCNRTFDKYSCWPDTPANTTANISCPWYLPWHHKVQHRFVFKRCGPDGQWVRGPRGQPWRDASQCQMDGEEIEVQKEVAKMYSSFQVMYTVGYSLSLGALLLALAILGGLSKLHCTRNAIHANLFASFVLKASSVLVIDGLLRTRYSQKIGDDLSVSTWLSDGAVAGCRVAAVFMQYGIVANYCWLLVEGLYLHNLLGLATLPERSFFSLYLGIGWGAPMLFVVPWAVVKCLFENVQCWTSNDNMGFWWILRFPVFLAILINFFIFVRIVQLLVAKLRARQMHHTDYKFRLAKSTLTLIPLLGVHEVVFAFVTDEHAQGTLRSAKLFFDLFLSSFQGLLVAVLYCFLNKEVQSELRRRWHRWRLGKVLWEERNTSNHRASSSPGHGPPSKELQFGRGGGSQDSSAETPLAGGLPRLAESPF

H[Aib]QGTFTSDYSKYLDARAAK([AEEA-γGlu-C20‑OH])DFVQWL[Met(O2)][αMeD]T-NH2 [TP629] was tested, and the “GCGR EC50 human” value [1] was 3.17 nM and the “GLP1R EC50 human” value [2] was 2.23 nM.

B1: TP627 (peptide)
peptide: H[Aib]QGTFTSDYSKYLDARAAK([AEEA-γGlu-C16 diacid])DFVQWL[Met(O2)][αMeD]T-NH2
modifications: N-terminus assumed
SMILES: CC(C)C[C@H](NC(=O)[C@H](Cc1ccc(O)cc1)NC(=O)[C@H](CCCCN)NC(=O)[C@H](CO)NC(=O)[C@H](Cc1ccc(O)cc1)NC(=O)[C@H](CC(=O)O)NC(=O)[C@H](CO)NC(=O)[C@@H](NC(=O)[C@H](Cc1ccccc1)NC(=O)[C@@H](NC(=O)CNC(=O)[C@H](CCC(N)=O)NC(=O)C(C)(C)NC(=O)[C@@H](N)Cc1c[nH]cn1)[C@@H](C)O)[C@@H](C)O)C(=O)N[C@@H](CC(=O)O)C(=O)N[C@@H](C)C(=O)N[C@@H](CCCNC(=N)N)C(=O)N[C@@H](C)C(=O)N[C@@H](C)C(=O)N[C@@H](CCCCNC(=O)COCCOCCNC(=O)CC[C@H](NC(=O)CCCCCCCCCCCCCCC(=O)O)C(=O)O)C(=O)N[C@@H](CC(=O)O)C(=O)N[C@@H](Cc1ccccc1)C(=O)N[C@H](C(=O)N[C@@H](CCC(N)=O)C(=O)N[C@@H](Cc1c[nH]c2ccccc12)C(=O)N[C@@H](CC(C)C)C(=O)N[C@@H](CCS(C)(=O)=O)C(=O)N[C@@](C)(CC(=O)O)C(=O)N[C@H](C(N)=O)[C@@H](C)O)C(C)C
With B1 the “GCGR EC50 human” value [1] was 0.14 nM and the “GLP1R EC50 human” value [2] was 0.25 nM.

B2: TP626 (peptide)
peptide: H[Aib]QGTFTSDYSKYLDARAAK([AEEA-γGlu-C18 diacid])DFVQWL[Met(O2)]DT-NH2
modifications: N-terminus assumed
SMILES: CC(C)C[C@H](NC(=O)[C@H](Cc1ccc(O)cc1)NC(=O)[C@H](CCCCN)NC(=O)[C@H](CO)NC(=O)[C@H](Cc1ccc(O)cc1)NC(=O)[C@H](CC(=O)O)NC(=O)[C@H](CO)NC(=O)[C@@H](NC(=O)[C@H](Cc1ccccc1)NC(=O)[C@@H](NC(=O)CNC(=O)[C@H](CCC(N)=O)NC(=O)C(C)(C)NC(=O)[C@@H](N)Cc1c[nH]cn1)[C@@H](C)O)[C@@H](C)O)C(=O)N[C@@H](CC(=O)O)C(=O)N[C@@H](C)C(=O)N[C@@H](CCCNC(=N)N)C(=O)N[C@@H](C)C(=O)N[C@@H](C)C(=O)N[C@@H](CCCCNC(=O)COCCOCCNC(=O)CC[C@H](NC(=O)CCCCCCCCCCCCCCCCC(=O)O)C(=O)O)C(=O)N[C@@H](CC(=O)O)C(=O)N[C@@H](Cc1ccccc1)C(=O)N[C@H](C(=O)N[C@@H](CCC(N)=O)C(=O)N[C@@H](Cc1c[nH]c2ccccc12)C(=O)N[C@@H](CC(C)C)C(=O)N[C@@H](CCS(C)(=O)=O)C(=O)N[C@@H](CC(=O)O)C(=O)N[C@H](C(N)=O)[C@@H](C)O)C(C)C
B2 was tested, and the “GCGR EC50 human” value [1] was 0.39 nM and the “GLP1R EC50 human” value [2] was 0.77 nM.
